The target of one data set is T1, p63-DBD L210E (UniProt Q9H3D4 153-388, L249E).
T1 sequence: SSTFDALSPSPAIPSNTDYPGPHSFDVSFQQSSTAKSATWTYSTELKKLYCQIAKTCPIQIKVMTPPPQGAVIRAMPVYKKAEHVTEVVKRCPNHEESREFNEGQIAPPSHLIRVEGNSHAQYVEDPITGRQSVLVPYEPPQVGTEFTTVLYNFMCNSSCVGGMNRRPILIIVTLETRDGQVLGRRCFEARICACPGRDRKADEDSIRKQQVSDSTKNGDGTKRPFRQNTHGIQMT
The data set is described as follows: fluorescence polarization; FP: 100 nM 5'-fluorescein dsDNA, 10 mM sodium phosphate pH 7.2, 1 mM DTT, temperature not stated; NMR: 1 mM sodium phosphate pH 7.2, 100 mM NaCl, 5 mM DTT, 303. Conditions: protein: recombinant; label: 5'-fluorescein; blunt. Background: In fluorescence polarisation assays a small probe gives low polarisation when free and higher when bound to something large.

The target in another data set is p53-DBD (UniProt P04637 94-312). The description is as above. Conditions: protein: recombinant; chain copies: 2; label: 5'-fluorescein; blunt.
Chain of p53-DBD (P04637 94-312): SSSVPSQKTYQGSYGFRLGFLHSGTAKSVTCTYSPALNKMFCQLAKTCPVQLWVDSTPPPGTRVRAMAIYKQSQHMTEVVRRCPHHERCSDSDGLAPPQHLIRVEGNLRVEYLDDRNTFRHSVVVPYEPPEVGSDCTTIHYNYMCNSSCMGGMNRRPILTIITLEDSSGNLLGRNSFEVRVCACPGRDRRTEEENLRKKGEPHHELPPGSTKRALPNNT
The target in the next data set is T2, p63-DBD (UniProt Q9H3D4 153-388).
T2 sequence: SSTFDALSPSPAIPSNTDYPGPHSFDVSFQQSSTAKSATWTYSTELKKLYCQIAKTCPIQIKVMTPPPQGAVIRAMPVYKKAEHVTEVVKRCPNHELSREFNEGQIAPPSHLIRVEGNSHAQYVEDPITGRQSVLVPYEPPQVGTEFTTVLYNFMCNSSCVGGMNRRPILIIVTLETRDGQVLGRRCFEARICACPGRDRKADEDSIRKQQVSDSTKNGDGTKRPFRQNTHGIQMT
The data set can be described thus: NMR titration (1H-15N TROSY); 100 mM NaCl; FP: 100 nM 5'-fluorescein dsDNA, 10 mM sodium phosphate pH 7.2, 1 mM DTT, temperature not stated; NMR: 1 mM sodium phosphate pH 7.2, 100 mM NaCl, 5 mM DTT, 303. To be noted: protein: recombinant; tags: His-tag removed with thrombin (pET28a construct); blunt.

From publication PMC4880913, “Solution structure and binding specificity of the p63 DNA binding domain” come the findings set out here.

B1: con2 x 5 (FP) (dsDNA)
DNA 1: TTAGGACATGTCCATC
DNA 2: GATGGACATGTCCTAA
In the case of B1, the binding result with p63-DBD L210E and with p53-DBD was “binds” in each case.

B2: con2 x 5 (NMR) (dsDNA)
DNA 1: TTAGGACATGTCCATC
DNA 2: GATGGACATGTCCTAA
B2: the binding result with p63-DBD was “binds”.
